Data reported in the supplement of paper PMC12636428.

System: Saccharomyces cerevisiae
Assay: transcriptional activation domain activity (GFP:mCherry ratio, weighted mean of sorted bins, harmonized to initial dataset scale) (arbitrary fluorescence ratio units); higher = stronger transcriptional activation
Settings: beta-estradiol 1 µM; induction time 4 h
How it was run: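 Yeast diploids with a GFP reporter received barcoded protein tiles, fused to an estradiol-inducible synthetic transcription factor, at the URA3 locus. Cultures were diluted 1:5 into SC holding 1 uM beta-estradiol, incubated 4 hours at 30 °C, sorted into 8 bins on GFP:mCherry ratio, and sequenced for barcodes, with tiles under 50 reads discarded. Activation activity values come from the read-weighted mean of bin median fluorescence, averaged across barcodes and linearly placed on the initial dataset scale.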

| Sequence | transcriptional activation domain activity |
| --- | --- |
| VAVAREPFQEGADASGKLYNKDSLDDEDSRKYVVILNAFLQMLAALDELVLVL | 76700 |
| CVWVYTEIFPEFVWLLIFKLLKSMPEMTRRTGIVVIRSLVSCGIQIGDTFTHK | 50600 |
| MSVYLFCGLLIFLGCGGSGWRYGFLSFFRLLLGVYVSFRYQHLIYTAWLMWAY | 69200 |
| FNLNEILPLPASDFKLNTVTNLNEIDFTNIFTKSPHPHSGSTHPRQVFDQLDD | 51600 |
| KEEETKPEEAAATEATPEATTEPAAEGAEAPKEEAKTDAAAETKKEDRPKSPG | 20500 |
| RMGMTQELLALVTGLAHYLKILIRIALTGALKLERDYVLREAISSFLDKLHLL | 69700 |
| MSTEVKAAHAGKARQKAWKPKVKTGCVTCRNRRVKCDEAKPDCRRCVAAGRKC | 10800 |
| MSNWLWIFLLLFFAFFCRSFTSCFIRLSVHIYTHCCMCSLGGLLVYLARSLFF | 44200 |
| DERRLVWPSRLTFMKVVFLLNRYVPFAGSFGMMYVLTLVNPVTQSDFCKHGFL | 54900 |
| MEHLVYHAPGVLPKMECRPPFRLCLLLLILFLFLFLCCQKVPLWIFACRFCCG | 41200 |
| MLLLGYILYLFYYGRYLYGILAFYCFSLLYVTLLPFIFVSARLFLHFTQIGIR | 53600 |
| MFLCCVCIEAQARILYLCCLYKLLTFYSFYYFYHSYFLLILNFFLLTILHALC | 74000 |
| KQYCVRPNSGRIEAGKDVEVQVLLQAMKEDPPQGYKCRDKFLVQSVAITADRE | 21700 |
| MLCLCTIWIYNAQICYYLSSCSTLLVTDCCCCYYYSLLFYILTSSFFQILLST | 50100 |
| EGGEKGTKEGGEKKEGAGEKEGGEKKEGGEKEGAKEGGEIGAKEGEEKKEGGE | 17500 |
| FCFYPFQKQWVMFSLTKDSLQLAHKFNFTRVPLPQRLRAVYLYARFAWRIFLL | 33000 |
| CDSGNEFDGRIGLRVSSIFVILIGSLIGAMLPVVLARSSKMRVPKLAFFVAKY | 36900 |
| IRDRFNHGPCKVYILFMNCTYLPMIPGLFRIIEILRYYLRLRWLRCCSAAGPD | 60300 |
| RLETLHKCIVTYLWLSYRFANLVGSRKVATYAKEITENVIEKTLMEFTWTRWA | 52000 |
| RPPVLRLRALTALITVLILLLAAIVVLYRFSERSLLYQTAFIYQAKIPYFNSI | 24500 |
| VKEKTDQAKAEDRKRAEKRGEQYEDSSDEEKERRRKARQKAKQGGGTGAAKAP | 26200 |

| Sequence | transcriptional activation domain activity |
| --- | --- |
| MRRLPTAMVSCFGVYAVSHNLSLPFVSSLFPCFIQFCARIILFSLVGYSFWSL | 74500 |
| GRTNVALPIYLFVFGELIDAYENRHIHHMDRIKMVLRMWFFKSIWKSFLQGAG | 56300 |
| MSLASLAAQRSNCMKRRVGCVVVRDKRVVSTGYNGTPRGLRNCGEGGCGRCNE | 21100 |
| FLLLMFQGLDIFTPVIRVLHFRICLLLLLLIILLAVPLLFSYIIFSRPFLSLV | 43900 |
| VMLNQQILYFCLRILCMHAYAQFRMEDSDIWRMVEKKKHIYNRLIELVYTLCS | 46300 |
| RRARAHAGMRTRARGGQRAEGVGGVQKARRQTAQGARGACRGREGRRAAGGRL | 8470 |
| EPQPPPKAEPPPEPEPEPVPKAEAPPPPREEPPPPKKAPPPPKPEPTPAPAPT | 38600 |
| MRKNGSILSFRSFPPSPTFLPSFLLFFFSFPFFPVIFFQTPLLFLLLFFIYWG | 42000 |
| FRMVLLVYQVAWAVHVYRTRNIALAYLNNYARMMYAIRSYNYQCLFHQIDLEG | 57100 |
| VPLHISLPSLVIDVRVIGEPGLYFADLGCCYCLDAELQITHIHGLFLHVVFIL | 56600 |
| MSLPGGFIFCCLFIFIFFAPFYSTFLRFFFPSCFYLFFYICCSFFFFFFFFPP | 38900 |
| TGAGLFFFFHLFLCVWGIEILLVALDFPFFFFWFPYCAWAVSVRLGFGMIPKI | 66900 |
| LPSSLLFLLPHLFPTLPLLPSIPLLTPSSSSLFFHLICLYCPPFAFWAWFWFW | 55900 |
| WDWARRYHCLAWGGEVSLLSFLPLLPVCLLSWLCRVSPIKWALVAVFFFWLLG | 65900 |
| MTLTLHPCAQTQFLTAFYCIYCHLTWRCSLLILINMGLGLIQRYVFPLLTFLF | 43400 |
| KKPAAKKQKTAPAEKINTTDDSKKARGRPKKADSNGTAKAAQKKKEPKAAATA | 32900 |
| LRELHKSSFTNSLRQWVMSGVYQLDPFVRPYLRAYAIACLRIVFHILPHLTSM | 48200 |
| MDPEQATDAKPPKPPVVRGARACTVCRAAKMKCVGAEDGQKPCQRCKRANVEC | 53000 |
| EVDMTPADALDDFDLEMLGDVESPSPGMTHDPVSYGALDVDDFEFEQMFTDAL | 112000 |
| IGMQLLLTWAYIRLNPFAVYSSPYIILFSFWSLGYLVLVYTLTLPSSLPFYHS | 46800 |
| MAFLYLELPLVGMTFGGGRRGWGFMYLFLFLSFSFFFIQLWFGLVWVMTLCEV | 63600 |

| Sequence | transcriptional activation domain activity |
| --- | --- |
| CLFFFSLFSLFILIFLSFLFFPPTSCFPSLYFLFYLSHFLLSFSFLYLYRYRF | 39500 |
| WCVVLCMVLILPRLFYTILQMNDYNISPFNPNVNALYTSLLGYLPLLAVFIVM | 53800 |
| RGGGGGGKRGSRAGSGIAADSKEKGNDGEVKLKDKEKGRSKEKKSGKEGGGAA | 35900 |
| FICLLLSTTLRRLRWCLIRYIRNNYMEVCVCLVTIGVVAFSRLSWTLWVGAYV | 50000 |
| SASPDESRRSSHRSRRDRDYEKRRDRGEERDSDHDHRRKSHSHRDRERDRGRD | 30000 |
| TGGLPELREHLDDGRASYAYARVTYSNDKESQREKFVLVVWIGPACKVMRKAK | 25700 |
| ASSAPAAASSAPDAASSAPAAASSAPAAASSAPPAAASPAASPAAGGFQLQNG | 38200 |
| NGEDAAPAAEPAGTSTADAVGGTTALPAAYRLKAFISHKGPSVHSGHYVVHIR | 52700 |
| RGTIRPGFLIYFFILFLWVFQIHCIMQIIVNRIALLHVSPTIVRRLKWGIFAI | 71800 |
| MLFSLYLFFYFLFFVCDGLPYFWFYKHTRFSVNYVSSSPPFCWSLFFLFFYFF | 62000 |
| AMPTFDLVMWYREFQRILLEMRAYVIYKATVLPRWSNPSYDRPFPVLPVRGVI | 48600 |
| NILVRELQWCILCIRYTALGSLDHIRRLMTEIPAHHGLVRFLQRWVENWLEEQ | 37400 |
| GLGFFFSFSLFNFFLHASSLYLLFLVTLLDLHYIFLVLSLTLFRVYVCFISAP | 43400 |
| GKKSSGKKSGSSKKTKKDKKAEKDKTAADEKEKEEVKEKETGAEGEKTPEHSE | 37700 |
| MFCLRSWLPLLFIPTNAPPIFIFIFFFLNFFLSRPCVYCSFLLLILCLTSCYW | 36600 |
| YINAMLGLPRSISPDDFDQTLPLDLSDENITEVAYLPENQHSVLSSTGISNEH | 58400 |
| MMRKLAYFYALPEVQNSKVLQTIVKKGFVPLLIALIFPRVTEDQLRVVIRFCQ | 50000 |
| MYLFVLYLFFFIIVIRLFMLLFCVYFSVIFCYLFTLVLLLLFIIFFKLIFILL | 62600 |
| RKEGGGHGSSSRRDRDRDRDRSDRHRSSKKSSSSNNHDADGTAAAAADASGVH | 18200 |
